In US20100210473A1:

Experiments:
[1] = target: antigen of Z13e1 scFv ('its antigen')
[2] = target: gp120 complexed with soluble CD4 (HIV-1); test: yeast display flow cytometry, gp120 titrated in the presence of sCD4, MFI of antigen binding (sandwich with biotinylated mAb and SA-PE)
[3] = target: monomeric gp120 (HIV-1) (HIV-1); test: yeast display flow cytometry, gp120 titrated in the absence of sCD4, MFI of antigen binding (sandwich with biotinylated mAb and SA-PE)

Row | Substance | Kd [1] [nM] | Kd [2] [nM] | Kd [3] [nM]
1 | Z13e1 scFv displayed on yeast | 50 | – | –
2 | scFv X5 displayed on yeast (X5-pPNLS in EBY100) | – | 1.1 | 14.5
